B1: hu23 (humanized anti-PTK7 antibody) (antibody, V domains shown)
VH: QITLKESGPTLVKPTQTLTLTCTFSGFSLSTSNMGVGWIRQPPGKALEWLAHIWWDDDKYYSPSLKSRLTITKDTSKNQVVLTMTNMDPVDTATYYCVRSNYGYAWFAYWGQGTLVTVSS
VL: DIQMTQSPSSLSASVGDRVTITCKASQDIYPYLNWFQQKPGKAPKTLIYRTNRLLDGVPSRFSGSGSGTDFTFTISSLQPEDIATYYCLQYDEFPLTFGAGTKLEIKR

What was measured:
[1] = target: human PTK7 expressed on cells (cancer cell lines with endogenous PTK7; HEK293T-PTK7 over-expressing cells) (human) (UniProt Q13308); experiment: flow cytometry, H446 cells, 10 µg/mL
[2] = target: human PTK7 expressed on cells (cancer cell lines with endogenous PTK7; HEK293T-PTK7 over-expressing cells) (human) (UniProt Q13308); experiment: flow cytometry, H661 cells, 10 µg/mL
[3] = target: human PTK7 expressed on cells (cancer cell lines with endogenous PTK7; HEK293T-PTK7 over-expressing cells) (human) (UniProt Q13308); experiment: flow cytometry, U2OS cells, 10 µg/mL
[4] = target: T1, human PTK7 expressed on cells (cancer cell lines with endogenous PTK7; HEK293T-PTK7 over-expressing cells) (human, UniProt Q13308 31-1070); experiment: cell-based or functional assay
T1 sequence: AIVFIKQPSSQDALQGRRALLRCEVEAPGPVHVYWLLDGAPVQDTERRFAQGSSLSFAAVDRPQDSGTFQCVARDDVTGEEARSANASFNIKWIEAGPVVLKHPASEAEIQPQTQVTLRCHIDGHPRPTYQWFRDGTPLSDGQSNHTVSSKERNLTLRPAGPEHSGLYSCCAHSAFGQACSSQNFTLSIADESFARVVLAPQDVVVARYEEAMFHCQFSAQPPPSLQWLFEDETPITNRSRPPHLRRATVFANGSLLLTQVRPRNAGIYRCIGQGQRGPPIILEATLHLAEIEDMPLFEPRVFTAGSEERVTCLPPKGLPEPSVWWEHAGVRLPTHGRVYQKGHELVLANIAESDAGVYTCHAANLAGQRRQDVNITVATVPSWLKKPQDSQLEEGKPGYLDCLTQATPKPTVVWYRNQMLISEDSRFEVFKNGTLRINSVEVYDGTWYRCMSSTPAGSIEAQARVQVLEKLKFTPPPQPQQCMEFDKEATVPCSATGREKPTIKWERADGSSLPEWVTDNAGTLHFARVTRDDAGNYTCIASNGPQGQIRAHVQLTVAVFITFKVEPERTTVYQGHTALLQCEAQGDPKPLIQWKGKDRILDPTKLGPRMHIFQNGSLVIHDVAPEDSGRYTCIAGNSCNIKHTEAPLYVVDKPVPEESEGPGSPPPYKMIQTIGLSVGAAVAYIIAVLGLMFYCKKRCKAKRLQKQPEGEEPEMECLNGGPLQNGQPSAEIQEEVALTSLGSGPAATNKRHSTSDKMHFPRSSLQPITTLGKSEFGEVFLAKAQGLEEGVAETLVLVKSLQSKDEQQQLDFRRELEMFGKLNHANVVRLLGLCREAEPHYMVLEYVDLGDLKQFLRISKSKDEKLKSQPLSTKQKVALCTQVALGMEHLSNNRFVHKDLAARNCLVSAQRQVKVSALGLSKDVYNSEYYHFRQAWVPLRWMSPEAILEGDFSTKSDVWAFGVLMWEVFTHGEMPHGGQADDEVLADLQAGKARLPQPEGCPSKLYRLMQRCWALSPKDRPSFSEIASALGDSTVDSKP

Row | Molecule | MFI [1] | MFI [2] | MFI [3] | IC50 of cell viability (MTS), antibody + saporin-conjugated anti-human Fab (Fab-ZAP), DMS114 cells [4] [µg/mL] | IC50 of cell viability (MTS), antibody + saporin-conjugated anti-human Fab (Fab-ZAP), H446 cells [4] [µg/mL]
1 | Control mAb (Table 7) (antibody) | 11 | 4.2 | 5.3 | – | –
2 | B1 | – | – | – | 0.0103 | 0.0447

— patent publication US20180094075A1 (Pfizer, published 2018)
